Here are results for 3 substances from publication PMC10095184.

For data set [1], the system named is NS5-6xHis BTV-1 (Bluetongue virus 1). In words: pull-down RT-qPCR. On the technique in general: Real-time PCR tracks product formation cycle by cycle.
In data set [2] the test system is NS5-6xHis AHSV-4 (African horse sickness virus 4). As to the kind of experiment: pull-down RT-qPCR.

In the case of BTV-1 Seg-1 mRNA, in data set [1], the binding signal (Ct (ctrl 14.81)) was determined as 10.8 and the binding signal (Ct (ctrl 18.09)) was 10.9. Further, in data set [2], the binding signal (Ct (ctrl 14.81)) was determined as 11.3 and the binding signal (Ct (ctrl 18.09)) amounted to 11.6.
As to BTV-1 Seg-3 mRNA, in data set [1], the binding signal (Ct (ctrl 19.32)) was 11.2 and the binding signal (Ct (ctrl 19.87)) worked out at 11.5. In data set [2], this substance registered a binding signal (Ct (ctrl 19.32)) of 11.9 and a binding signal (Ct (ctrl 19.87)) of 11.8.
In data set [1], BTV-1 Seg-7 mRNA returned a binding signal (Ct (ctrl 16.17)) of 11.1 and a binding signal (Ct (ctrl 16.39)) of 10.2. Also, in data set [2], the binding signal (Ct (ctrl 16.17)) was determined as 11.8 and the binding signal (Ct (ctrl 16.39)) was found to be 10.9.
